From patent US20200140532A1 (Ablynx, published 2020)

T1: recombinant human Brevican (human, UniProt Q96GW7 23-911, limits assumed)
T1 sequence: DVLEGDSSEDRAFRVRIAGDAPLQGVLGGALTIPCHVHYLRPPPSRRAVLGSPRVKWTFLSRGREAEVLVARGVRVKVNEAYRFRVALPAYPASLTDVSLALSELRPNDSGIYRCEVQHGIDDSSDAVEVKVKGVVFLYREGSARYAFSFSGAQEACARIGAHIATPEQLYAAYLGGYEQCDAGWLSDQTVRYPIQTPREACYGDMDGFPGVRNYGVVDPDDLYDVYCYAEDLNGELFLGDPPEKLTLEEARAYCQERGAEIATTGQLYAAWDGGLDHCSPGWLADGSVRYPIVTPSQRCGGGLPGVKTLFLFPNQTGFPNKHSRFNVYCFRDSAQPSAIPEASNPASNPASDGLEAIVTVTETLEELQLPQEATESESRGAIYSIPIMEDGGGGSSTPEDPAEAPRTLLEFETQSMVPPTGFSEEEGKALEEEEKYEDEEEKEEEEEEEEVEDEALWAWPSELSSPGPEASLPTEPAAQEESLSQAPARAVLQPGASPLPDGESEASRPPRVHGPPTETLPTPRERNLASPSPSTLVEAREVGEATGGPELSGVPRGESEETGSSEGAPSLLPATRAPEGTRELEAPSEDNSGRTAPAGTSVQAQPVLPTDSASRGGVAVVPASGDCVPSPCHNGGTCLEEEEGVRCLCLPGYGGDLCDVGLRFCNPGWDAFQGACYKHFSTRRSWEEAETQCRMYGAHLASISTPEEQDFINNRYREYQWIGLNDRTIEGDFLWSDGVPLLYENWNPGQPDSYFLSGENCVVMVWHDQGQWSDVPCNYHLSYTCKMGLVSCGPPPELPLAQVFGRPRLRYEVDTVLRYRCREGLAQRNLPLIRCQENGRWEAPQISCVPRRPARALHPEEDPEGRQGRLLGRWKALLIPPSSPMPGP


Columns and labels:
[1] = target: T1, recombinant human Brevican; experiment: ELISA on recombinant human Brevican
[2] = target: T2, recombinant dog Aggrecan G1-IGD-G2 (dog, UniProt Q28343 20-693, limits assumed); experiment: SPR (ProteOn), off-rate only indicative
T2 construct: also called Dog G1-IGD-G2
Method: (§1) SPR (ProteOn) experiments were carried out for the “monovalent” Aggrecan-ALB26 formats in order to determine off-rates.

[3] = target: T3, recombinant rat Aggrecan G1-IGD-G2 (rat, UniProt P07897 20-684, limits assumed); experiment: SPR (ProteOn), off-rate only indicative
T3 construct: also called Rat G1-IGD-G2
Method: as §1

[4] = target: T4, recombinant human Aggrecan G1-IGD-G2 (human, UniProt P16112 20-676); experiment: SPR (ProteOn), off-rate only indicative
T4 construct: Only the G1-IGD-G2 region was used (R&D Systems 1220-PG is named for the immunogen); also called Hu G1-IGD-G2
Method: as §1

[5] = target: T5, recombinant bovine Aggrecan G1-IGD-G2 (bovine, UniProt P13608 20-684, limits assumed); experiment: SPR (ProteOn), off-rate only indicative
T5 construct: also called Bov G1-IGD-G2; Boy G1-IGD-G2
Method: as §1

[6] = target: recombinant human Neurocan (human, UniProt O14594 23-1321, limits assumed); experiment: ELISA on recombinant human Neurocan
[7] = target: T2, recombinant dog Aggrecan G1-IGD-G2; experiment: ELISA on recombinant G1-IGD-G2
[8] = target: T3, recombinant rat Aggrecan G1-IGD-G2; experiment: ELISA on recombinant G1-IGD-G2
[9] = target: T4, recombinant human Aggrecan G1-IGD-G2; experiment: ELISA on recombinant G1-IGD-G2
[10] = target: T5, recombinant bovine Aggrecan G1-IGD-G2; experiment: ELISA on recombinant G1-IGD-G2

| Binder | binding result [1] | koff [2] | koff [3] | koff [4] | koff [5] | binding result [6] | EC50 [7] | EC50 [8] | EC50 [9] | EC50 [10] |
| --- | --- | --- | --- | --- | --- | --- | --- | --- | --- | --- |
| C01010054 (114F08-ALB26) (VHH, not shown: small tags and cut ends, also called C010100054) VHH: EVQLVESGGGLVQAGGSLRLSCAASGSTFIINVVRWYRRTPGKQRELVATISSGGNANYVDSVRGRFSISRDGAKNAVDLQMNGLKPEDTAVYYCNVPTTHYGGVYYGPYWGQGTQVTVSS | no binding | 0.011 s⁻¹ | 0.65 s⁻¹ | 0.013 s⁻¹ | 0.47 s⁻¹ | no binding | 3 nM | 7.6 nM | 6 nM | 5.6 nM |
| C01010060 (606A07-ALB26) (VHH, not shown: small tags and cut ends) VHH: DVQLVESGGGLVQPGGSLRLSCVASGRTFSIYGMGWFRQAPGKEREFVAAINGGSRTYYADSVKGRFTISRDNSKNTVYLQMNSLRPEDTAVYYCAADRSGYGTSLDWWYDYWGQGTLVTVSS | no binding | 0.038 s⁻¹ | 0.021 s⁻¹ | 0.021 s⁻¹ | 0.027 s⁻¹ |  | 6.9 nM | 8.4 nM | 12 nM |  |

Further lines, results first:

| binding result [1] | koff [2] | koff [3] | koff [4] | koff [5] | binding result [6] | EC50 [7] | EC50 [8] | EC50 [9] | EC50 [10] | Binder |
| --- | --- | --- | --- | --- | --- | --- | --- | --- | --- | --- |
| no binding | 0.12 s⁻¹ | 0.26 s⁻¹ | 0.17 s⁻¹ | 0.26 s⁻¹ | no binding | 2.6 nM | 5.9 nM | 1.2 nM | 1.6 nM | C01010094 (604F02-ALB26) (VHH, not shown: small tags and cut ends, also called C010100094) VHH: DVQLVESGGGLVQPGGSLRLSCAASGRTFSSYTMGWFRQAPGKEREFVAAISWSGGRTYYADSVKGRFTISRDNSKNTVYLQMNSLRPEDTAVYYCAAYRRRRASSNRGLWDYWGQGTLVTVSS |
| no binding | 0.083 s⁻¹ | 0.0015 s⁻¹ | 0.0025 s⁻¹ | 0.0027 s⁻¹ | no binding | 25 nM | 0.33 nM | 0.24 nM | 0.28 nM | C01010097 (608A05-ALB26) (VHH, not shown: small tags and cut ends) VHH: DVQLVESGGGLVQPGGSLRLSCAASGRTFSTYTMGWFRQAPGKEREFVAAISWSGGTTYYADSVKGRFTISRDNSKNTVYLQMNSLRPEDTAVYYCAARPRYYYYSLYSYDYWGQGTLVTVSS |
| no binding | 0.0071 s⁻¹ | 0.00025 s⁻¹ | 0.0034 s⁻¹ | 0.0013 s⁻¹ | no binding | 0.61 nM | 0.32 nM | 5.1 nM | 1.2 nM | C01010046 (601E08-ALB26) (VHH, not shown: small tags and cut ends) VHH: DVQLVESGGGLVQPGGSLRLSCTASGRTFSSYAVGWFRQAPGKEREFVAAISRSGRSTYYADSVKGRFTISRDNSKNTVYLQMNSLRPEDTAVYYCAAGLSYYSPHAYYDYWGQGTLVTVSS |
